B1: PABPC1 control 35-mer (ssRNA)
RNA: GGCCCCCAGCCCCGGCACUCGCUCUCCUCCUCUCA
B2: PABPC1 target 35-mer (ssRNA)
RNA: CCUCUUUUAUAAAAUAACCCGGUGAAGCAGCCGAG

Tests used:
ENO1 wt = ENO1 wt (Homo sapiens, UniProt P06733 1-434); assay: competition EMSA
ENO1down = ENO1down (Homo sapiens, UniProt P06733 1-434, K343A); assay: competition EMSA
Sequence of ENO1down (P06733 whole entry K343A): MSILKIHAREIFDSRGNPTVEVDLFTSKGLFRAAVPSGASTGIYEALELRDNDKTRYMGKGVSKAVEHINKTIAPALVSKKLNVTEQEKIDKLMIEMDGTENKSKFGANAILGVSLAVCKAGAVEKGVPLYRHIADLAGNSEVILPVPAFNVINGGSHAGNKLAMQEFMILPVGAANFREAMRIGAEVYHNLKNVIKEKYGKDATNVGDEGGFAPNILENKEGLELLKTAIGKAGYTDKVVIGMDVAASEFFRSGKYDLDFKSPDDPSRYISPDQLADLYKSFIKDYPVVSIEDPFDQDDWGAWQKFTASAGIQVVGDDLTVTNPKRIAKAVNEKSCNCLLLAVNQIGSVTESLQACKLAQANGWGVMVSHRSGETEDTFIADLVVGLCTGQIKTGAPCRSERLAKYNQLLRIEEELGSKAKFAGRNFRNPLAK

Sequence of ENO1 wt (P06733 whole entry): as the sequence (P06733 whole entry K343A) above, with A343K counted along it

Binder | Ki (ENO1 wt) [nM] | Ki (ENO1down) [nM]
B1 | 2587 ± 9 | 3261 ± 12
B2 | 27 ± 19 | 224 ± 12
